From article PMC3784150, “Characterization of C-S Lyase from C. diphtheriae: A Possible Target for New Antimicrobial Drugs” (BioMed Research International, 2013) come the findings set out here.

The target of one data set is T1, C-S lyase (Corynebacterium diphtheriae, UniProt Q6NFZ9).
T1 construct: gene aecD; recombinant His-tagged apoenzyme
Put plainly: fluorescence titration of apoenzyme (emission at […] nm). The class given is binding.

Data set [1] deals with pyridoxal-5′-phosphate (PLP-) dependent C-S lyase from Corynebacterium diphtheriae (Corynebacterium diphtheriae). Briefly: SEC; analytical Superdex 200 HR 10/30, 20 mM sodium phosphate pH 7.2, 150 mM NaCl, 0.1 mL/min; calibrated with mass standards 12.4-669 kDa; apparent mass 85 kDa against about 44 kDa for the subunit. On the technique in general: In gel filtration, larger molecules generally elute earlier.

The test system of data set [2] is N[C@@H](CCSC[C@H](N)C(=O)O)C(=O)O. Briefly: steady-state kinetics, Km. In kind it is biochemical, Corynebacterium diphtheriae. To be noted: PLP; pH 9.0; 30.0 °C.
A further data set concerns N[C@@H](CS)C(=O)O. Put plainly: purified protein. To be noted: PLP.
Data set [3] relates to N[C@@H](CCSC[C@H](N)C(=O)O)C(=O)O. Put plainly: purified protein. To be noted: PLP; pH 9.0; 30.0 °C.

By Kd is commonly meant a measure of binding affinity in units of concentration. `Cc1ncc(COP(=O)(O)O)c(C=O)c1O` [PLP, pyridoxal-5′-phosphate]: the Kd on C-S lyase amounted to 90 ± 30 nM.

As usually defined, the stoichiometry N is a count of units in the complex or per binding partner. In the case of “pyridoxal-5′-phosphate (PLP-) dependent C-S lyase from Corynebacterium diphtheriae (enzyme)”, the stoichiometry N in data set [1] is 2.

What is called Km is the concentration of substrate that gives half-maximal velocity. Broadly, the kcat is the number of substrate molecules converted per active site and unit of time at saturation. In the case of “C-S lyase (Corynebacterium diphtheriae NCTC 13129; Y114F)”, in data set [2], the Km is 200 ± 10 µM and the kcat worked out at 1.2 ± 0.02 s⁻¹.

On to “C-S lyase (Corynebacterium diphtheriae NCTC 13129)”, for which, in the data set on N[C@@H](CS)C(=O)O, the Km came out at 950 ± 180 µM. In data set [3], the Michaelis-Menten constant (Km) was 1070 ± 220 µM and the kcat came out at 92.7 ± 4.44 s⁻¹.
